As usually defined, the EC50 is the concentration giving half of the maximal effect. As usually defined, the Kd is the free concentration of one partner at which half of the binding sites on the other are occupied at equilibrium, for simple one-to-one binding.

Residue numbers refer to the chain shown, from its start. Names and notes keep the numbering of the source.

The text below walks through data of patent publication US20090203595A1 (ZENSUN SHANGHAI SCIENCE AND TECHNOLOGY, published 2009).

Assay [1] concerns the target T1, ErbB2&ErbB3 co-expressed on COS7 cells (UniProt P04626 23-1255; P21860 20-1342, limits assumed).
T1 construct: whole, on cells; Both receptors are co-expressed on the same cells, and the numbers are for these cells, not for a single receptor; also called COS7 cells (ErbB2&ErbB3 co-expression)
The assay is described as follows: competition of bound radiolabeled ligands on COS7 cells co-expressing ErbB2&ErbB3. Here is the method: (§1) To study the receptor binding affinity of neuregulin and its mutations, ErbB2&ErbB3 or ErbB2&ErbB4 co-expressing COS7 are used. The cells are grown to 80% confluence. In the afternoon, after the cells reach 80% confluence, the media is changed to serum free media. Then, after 24 hours, the cells are harvested for receptor binding affinity assays.

Assay [2] deals with T1, ErbB2&ErbB3 co-expressed on COS7 cells. The assay is described as follows: receptor binding affinity assay on COS7 cells co-expressing ErbB2&ErbB3. Here is the method:
as §1

Assay [3] deals with T2, ErbB2&ErbB4 co-expressed on COS7 cells (UniProt P04626 23-1255; Q15303 26-1308, limits assumed).
T2 construct: whole, on cells; Both receptors are co-expressed on the same cells, and the numbers are for these cells, not for a single receptor; also called COS7 cells (ErbB2&ErbB4 co-expression)
The assay is described as follows: receptor binding affinity assay on COS7 cells co-expressing ErbB2&ErbB4. Here is the method: as §1

Assay [4] deals with T2, ErbB2&ErbB4 co-expressed on COS7 cells. In words: competition of bound radiolabeled ligands on COS7 cells co-expressing ErbB2&ErbB4. Here is the method:
as §1

B1: neuregulin (the 177-237 amino acids fragment of neuregulin1 β2) (ligand)
chain: SHLVKCAEKEKTFCVNGGECFMVKDLSNPSRYLCKCPNEFTGDRCQNYVMASFYKAEELYQ
notes: also called NRG; NRG-1β
Turning to B1, the EC50 in assay [1] came to 113 nM; in assay [4], 132 nM. For the same molecule, the figures for the Kd in assay [2] and in assay [3] were 1.41 nM and 0.282 nM, respectively.

B2: neuregulin variant L3A (ligand)
chain: B1 chain with L3A
Take B2: the equilibrium dissociation constant (Kd) is 1.15 nM in assay [2] and 1.06 nM in assay [3].

B3: neuregulin variant D43A (ligand)
chain: B1 chain with D43A
In the case of B3, the EC50 came out at 149 nM in assay [1] and 40.7 nM in assay [4].
